The values that follow come from patent publication US20260008865A1 (TETHEREX PHARMACEUTICALS, published 2026).

The target of assay [1] is T1, SelSP1 (PSGL-1 sulfopeptide).
T1 construct: also called sulfopeptide modelled after the N-terminus of human PSGL-1
The experiment in a line: SPR, captured SelK2, SelSP1 as analyte; value told over the two surface densities. As to the method: (§1) A new COOH2 biosensor was installed and conditioned according to CH0012 protocol. Protein G was immobilized via amine coupling. A mixture containing 0.1M EDC and 0.025M NHS was injected for 4 minutes over flow channel 1 (FC1) and FC2. 50 μg/mL Protein G in 10 mM Sodium acetate buffer pH 4.5 was injected for 15 minutes over FC1 and FC2. 1M Ethanolamine HCl solution pH 8.0 was injected for 5 minutes over FC1 and FC2. Approximately 1,145 response units (RU) of Protein G was coupled on FC1 and FC2 of the sensor chip. 50 nM SelK2 in system buffer was injected to capture approximately 2,000 RU SelK2 on FC1 and 1,000 RU on FC2. […] Each sample was injected for 3 min at a flow rate of 40 μL/min. Dissociation was monitored after each injection for 4 min at the same flow rate. Samples were tested in duplicate from low concentration to high.
(§2) Kinetic model fitting was performed using Qdat analysis software (SensiQ Technologies, Inc. Version 2.5.1.56). A simple 1:1 kinetic model was fit to the data to determine best fit values for association and dissociation rate constants, ka and kd. A local Rmax was fit for each curve to account for incomplete dissociation of the SelSP1 after some of the analyte injections.

For assay [2] the target is unchanged. The assay can be described thus: SPR (SensiQ Pioneer), about 1,000 RU SelK2 captured on Protein G, SelSP1 as analyte, 25 °C, 1:1 model. As to the method: (§3) SensíQ Pioneer (S/N 13110154) was used for all SPR measurements at a controlled temperature of 25° C. SelK2 (Lot #14-2189) was dispensed into three 1 mL aliquots in the biosafety cabinet. Protein G was purchased from BioVision (Cat. #6510). Running buffer for Pioneer contained 10 mM HEPES pH 7.4, 150 mM NaCl, 3.4 mM EDTA and 0.005% Tween-20. All other reagents were purchased from Sigma Aldrich.
as §1, §2

For assay [3] the target is unchanged. The assay can be described thus: SPR (SensiQ Pioneer), about 2,000 RU SelK2 captured on Protein G, SelSP1 as analyte, 25 °C, 1:1 model. As to the method:
as §3, §1, §2

For assay [4] the target is unchanged. The assay can be described thus: SPR; summary sentence in the description; target printed as PSGL-1, but the worked example used the PSGL-1 sulfopeptide SelSP1.

B1: SelK2 (antibody, human IgG2, kappa, V domains shown)
VH: QVQLVESGGGVVQPGRSLRLSCAASGFTFSSFGMHWVRQAPGKGLEWVAYISSASSTIYYADTVKGRFTISRDNSKNTLYLQMNSLRAEDTAVYYCASSYGYWGQGTLVTVSS
VL: DIVMTQTPLSLPVTPGEPASISCRSSRSLVHSNGNTYLHWYLQKPGQSPQLLIYKVSNRFSGVPDRFSGSGSGTDFTLKISRVEAEDVGVYYCSQTTHVPLTFGQGTRLEIKR
notes: human kappa light chain; also called SelK2 antibody; humanised anti-PSGL-1 antibody
B1: in assay [1], binding was characterised by a dissociation constant (Kd) of 4.28 nM. Further, in assay [2], the affinity, expressed as Kd, was 4.27 nM; the koff (usually the rate constant with which the complex falls apart) stood at 0.00232 s⁻¹; the kon – broadly, the rate constant with which the complex forms – was found to be 544000 M⁻¹ s⁻¹. Besides, in assay [3], the affinity, expressed as Kd, was 4.29 nM; the koff stood at 0.00218 s⁻¹; the kon is 508000 M⁻¹ s⁻¹. Also, the “fold increase in affinity against the parental antibody” value in assay [4] was around 4 fold.
